Here are results for 33 molecules from patent US20250197490A1 (HBM ALPHA THERAPEUTICS, published 2025).

Substitutions are numbered along the chain they refer to.

The labels stand for the following.
T1: corticotropin-releasing hormone (CRH) peptide (human and mouse, UniProt P01143 145-185 (rat entry), not fully specified)
T1 peptide: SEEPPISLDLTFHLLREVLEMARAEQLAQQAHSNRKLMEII

B1: PR302036 (antibody, human IgG1, kappa, V domains shown)
VH: EMQLVESGGGLVQPGGSLRLSCAASGFTFSNYWMNWVRQAPGKGLEWVAEIRLKSNNYATHYAESVKGRFTISRDDSKSSVYLQMNSLKTEDTAVYYCTVGTLVYWGQGTLVTVSS
VL: DIVLTQSPDSLAVSLGERATINCRASQSVSTSTYNYMHWFQQKPGQPPKLLIKFASNLESGVPDRFSGSGSGTDFTLTISSLQAEDTAVYYCQHSWEIPYTFGQGTKLEIKR
B2: PR302038 (antibody, human IgG1, kappa, V domains shown)
VH: B1 VH
VL: EIVLTQSPATLSLSPGERATLSCRASQSVSTSTYNYMHWFQQKPGQAPRLLIKFASNLESGIPARFSGSGSGTDFTLTISSLEPEDTAVYYCQHSWEIPYTFGQGTKLEIKR
B3: PR302041 (antibody, human IgG1, kappa, V domains shown)
VH: B1 VH
VL: DIQLTQSPSSLSASVGDRVTITCRASQSVSTSTYNYMHWFQQKPGKAPKLLIKFASNLESGVPSRFSGSGSGTDFTLTISSLQPEDTATYYCQHSWEIPYTFGQGTKLEIKR
B4: PR302029 (antibody, human IgG1, kappa, V domains shown)
VH: B1 VH with M2V, A49G, S79N, V81L
VL: B1 VL
B5: PR302055 (antibody, human IgG1, kappa, V domains shown)
VH: B1 VH with R19K, P41S, S80T
VL: B3 VL
B6: PR302050 (antibody, human IgG1, kappa, V domains shown)
VH: B1 VH with R19K, P41S, S80T
VL: B1 VL
B7: PR302048 (antibody, human IgG1, kappa, V domains shown)
VH: B1 VH with M2V, R19K, P41S, A49G, S79N, S80T, V81A, V100R
VL: B3 VL
B8: PR302043 (antibody, human IgG1, kappa, V domains shown)
VH: B1 VH with M2V, R19K, P41S, A49G, S79N, S80T, V81A, V100R
VL: B1 VL
B9: PR302031 (antibody, human IgG1, kappa, V domains shown)
VH: B1 VH with M2V, A49G, S79N, V81L
VL: B2 VL
B10: PR302034 (antibody, human IgG1, kappa, V domains shown)
VH: B1 VH with M2V, A49G, S79N, V81L
VL: B3 VL
B11: PR302052 (antibody, human IgG1, kappa, V domains shown)
VH: B1 VH with R19K, P41S, S80T
VL: B2 VL
B12: PR302045 (antibody, human IgG1, kappa, V domains shown)
VH: B1 VH with M2V, R19K, P41S, A49G, S79N, S80T, V81A, V100R
VL: B2 VL
B13: PR302066 (antibody, human IgG1, kappa, V domains shown)
VH: B1 VH with Q13K, S80T
VL: B2 VL
B14: PR301777 (antibody, human IgG1, kappa, V domains shown)
VH: EMKLEESGGGLVQPGGSMKLSCVASGFTFSNYWMNWVRQSPEKGLEWVAEIRLKSNNYATHYAESVKGRFTISRDDSKSGVYLQMNNLGAEDTGIYYCTVGTLVYWGQGTLVTVSA
VL: DIVLTQSPASLAVSLGQRATISCRASQSVSTSTYNYMHWFQQKPGQPPKLLIKFASNLESGVPARFSGSGSGTDFTLNIHPVEEEDTATFYCQHSWEIPYTFGGGTKLEIKR
B15: PR302309-13 (antibody, human IgG1, kappa, V domains shown)
VH: QVQLVQSGSELKKPGASVKVSCKASGYTFTNYGMNWVRQAPGQGLEWMGWINTYTGEPIYTDDFKGRFVFSLDTSVSTAYLQISSLKAEDTAVYYCARSTMITTGGVFAYWGQGTLVTVSS
VL: DVLMAQTPLSLPVSLGDQASISCRSSQTIVHSDGNTYLEWYLQKPGQSPKLLIYKVSNRFSGVPDRFSGSGSGTDFTLKISRVEAEDLGVYYCFQGSHVPWTFGGGTKLEIKR
B16: PR302309-16 (antibody, human IgG1, kappa, V domains shown)
VH: QIQLVQSGAEVKKPGASVKVSCKASGYTFTNYGMNWVRQAPGQRLEWMGWINTYTGEPIYTDDFKGRVTITLDTSASTAYMELSSLRSEDTAVYYCSRSTMITTGGVFAYWGQGTLVTVSS
VL: B15 VL
B17: PR302309-14 (antibody, human IgG1, kappa, V domains shown)
VH: B15 VH with V2I, A97S
VL: B15 VL
B18: PR302309-15 (antibody, human IgG1, kappa, V domains shown)
VH: B16 VH with I2V, L72R, S97A
VL: B15 VL
B19: PR302309-1 (antibody, human IgG1, kappa, V domains shown)
VH: QIQLVQSGPELKKPGETVKISCKASGYTFTNYGMNWVKQAPGKVLKWMGWINTYTGEPIYTDDFKGRFAFSLETSASTAYLQINNLKNEDTATYFCSRSTMITTGGVFAYWGQGTLVTVSA
VL: DVVMTQSPLSLPVTLGQPASISCRSSQTIVHSDGNTYLEWFQQRPGQSPRRLIYKVSNRFSGVPDRFSGSGSGTDFTLKISRVEAEDVGVYYCFQGSHVPWTFGGGTKVEIKR
B20: PR302309-5 (antibody, human IgG1, kappa, V domains shown)
VH: B19 VH
VL: B19 VL with V2I, S7T, L11S, F41L, S48P, R51L, S72A
B21: PR302309-17 (antibody, human IgG1, kappa, V domains shown)
VH: B15 VH
VL: B19 VL with F41Y, R51L, V88L
B22: PR302309-20 (antibody, human IgG1, kappa, V domains shown)
VH: B16 VH
VL: B15 VL with L3V, A5T, P12S, S14T, L15P, D17Q, Q18P, K50Q, L109V
B23: PR302309-7 (antibody, human IgG1, kappa, V domains shown)
VH: B15 VH with V2I, A97S
VL: B19 VL
B24: PR302309-12 (antibody, human IgG1, kappa, V domains shown)
VH: B15 VH with V2I, A97S
VL: B19 VL with S7T, L11S, F41Y, S48P, R51L, S72A, V88L
B25: PR302309-3 (antibody, human IgG1, kappa, V domains shown)
VH: B19 VH
VL: B19 VL with V2I, S7T, P12S, L15P, F41Y, Q42L, R44K, R50Q, R51L
B26: PR302309-2 (antibody, human IgG1, kappa, V domains shown)
VH: B19 VH
VL: B19 VL with F41Y, R51L, V88L
B27: PR302309-10 (antibody, human IgG1, kappa, V domains shown)
VH: B15 VH with V2I, A97S
VL: B15 VL with L3V, A5T, P12S, S14T, L15P, D17Q, Q18P, K50Q, L109V
B28: PR302309-6 (antibody, human IgG1, kappa, V domains shown)
VH: B19 VH
VL: B19 VL with S7T, L11S, F41Y, S48P, R51L, S72A, V88L
B29: PR302309-4 (antibody, human IgG1, kappa, V domains shown)
VH: B19 VH
VL: B15 VL with L3V, A5T, P12S, S14T, L15P, D17Q, Q18P, K50Q, L109V
B30: PR302309-21 (antibody, human IgG1, kappa, V domains shown)
VH: B16 VH
VL: B19 VL with S7T, L11S, F41Y, S48P, R51L, S72A, V88L
B31: PR302309-9 (antibody, human IgG1, kappa, V domains shown)
VH: B15 VH with V2I, A97S
VL: B19 VL with V2I, S7T, P12S, L15P, F41Y, Q42L, R44K, R50Q, R51L
B32: PR302309-19 (antibody, human IgG1, kappa, V domains shown)
VH: B16 VH
VL: B19 VL with F41Y, R51L, V88L
B33: PR302334-18 (antibody, human IgG1, kappa, V domains shown)
VH: EVQLVESGGGLVQPGGSLRLSCAASGFTFSTYAMSWVRQAPGKGLEWVASIRSGGTTYYPDSVKGRFTISRDNSKNSLYLQMNSLRAEDTAVYYCTRGIDWGQGTTVTVSS
VL: NIVMTQTPKFLLVSAGDRITITCKASQSVNNDVAWYQQKPGQSPKLLIYYASNRYTGVPDRFTGSGYGTDFTFTISTVQAEDLAVYFCQQDYSSWTFGGGTNLEIKR

In one assay the target is T1, corticotropin-releasing hormone (CRH) …. The assay is described as follows: cell-based or functional assay.
Turning to B1, the “unlabelled nM value (Table 5 matrix; likely hCRHR1-Luc IC50 as in Tables 6-8)” value (“unlabelled nM value” below) came out at 1.4 nM.

For B2, the “unlabelled nM value” value amounted to 3.34 nM.

In the case of B3, the “unlabelled nM value” value came out at 2.54 nM.

On to B4, for which the “unlabelled nM value” value is 2.65 nM.

Take B5: the “unlabelled nM value” value was 1.35 nM.

Regarding B6, the “unlabelled nM value” value came to 0.572 nM.

On to B7, for which the “unlabelled nM value” value came out at 6.66 nM.

On to B8, for which the “unlabelled nM value” value amounted to 3.87 nM.

As for B9, the “unlabelled nM value” value turned out to be 14 nM.

As to B10, the “unlabelled nM value” value was determined as 6.87 nM.

Turning to B11, the “unlabelled nM value” value came to 2.05 nM.

As for B12, the “unlabelled nM value” value was 15.3 nM.

For the molecule B13, the “unlabelled nM value” value worked out at 2.49 nM.

For the molecule B14, the “unlabelled nM value” value came to 0.674 nM.

Another assay shares this target. As to the kind of experiment: cell-based or functional assay. The source holds these as a separate data set.
For the molecule B15, the “hCRHR1-Luc 0.5 nM CRH IC50” value stood at 7.23 nM.

As for B16, the “hCRHR1-Luc 0.5 nM CRH IC50” value came out at 5.47 nM.

As to B17, the “hCRHR1-Luc 0.5 nM CRH IC50” value is 1.68 nM.

B18: the “hCRHR1-Luc 0.5 nM CRH IC50” value turned out to be 10.5 nM.

B19: the “hCRHR1-Luc 0.5 nM CRH IC50” value was 4.42 nM.

For B20, the “hCRHR1-Luc 0.5 nM CRH IC50” value amounted to 0.454 nM.

Consider B21, for which the “hCRHR1-Luc 0.5 nM CRH IC50” value was 6.69 nM.

B22: the “hCRHR1-Luc 0.5 nM CRH IC50” value stood at 3.07 nM.

In the case of B23, the “hCRHR1-Luc 0.5 nM CRH IC50” value came out at 6.38 nM.

B24: the “hCRHR1-Luc 0.5 nM CRH IC50” value was 4.47 nM.

In the case of B25, the “hCRHR1-Luc 0.5 nM CRH IC50” value was determined as 2.22 nM.

Turning to B26, the “hCRHR1-Luc 0.5 nM CRH IC50” value is 0.773 nM.

Take B27: the “hCRHR1-Luc 0.5 nM CRH IC50” value came out at 3.2 nM.

For B28, the “hCRHR1-Luc 0.5 nM CRH IC50” value was determined as 1.08 nM.

As for B29, the “hCRHR1-Luc 0.5 nM CRH IC50” value was 1.26 nM.

Consider B30, for which the “hCRHR1-Luc 0.5 nM CRH IC50” value was 8.44 nM.

B31: the “hCRHR1-Luc 0.5 nM CRH IC50” value worked out at 6.08 nM.

For the molecule B32, the “hCRHR1-Luc 0.5 nM CRH IC50” value worked out at 4.83 nM.

The next assay shares this target. The assay is described as follows: cell-based or functional assay. This is another data set of the same source.
Turning to B33, the “hCRHR1-Luc 0.5 nM CRH IC50” value was 0.279 nM.
